Among the data in PMC4794721, “Improved Production of Active Streptomyces griseus Trypsin with a Novel Auto-Catalyzed Strategy” (Scientific Reports, 2016) are Km values, retold here.

Substrate in this series: N=C(N)NCCCC(NC(=O)c1ccccc1)C(=O)Nc1ccc([N+](=O)[O-])cc1
The experiment in a line: purified protein. Particulars: 50 mM Tris-HCl, pH 8.0, 37 °C (amidase assay).

B1: SGT (Streptomyces griseus trypsin) (Streptomyces griseus) (protein)
chain: VVGGTRAAQGEFPFMVRLSMGCGGALYAQDIVLTAAHCVSGSGNNTSITATGGVVDLQSSSAVKVRSTKVLQAPGYNGTGKDWALIKLAQPINQPTLKIATTTAYNQGTFTVAGWGANREGGSQQRYLLKANVPFVSDAACRSAYGNELVANEEICAGYPDTGGVDTCQGDSGGPMFRKDNADEWIQVGIVSWGYGCARPGYPGVYTEVSTFASAIASAARTL
For the protein B1, the Km was 7.88 ± 0.16 × 10^−2 mM.
